{"source": "patent US20190091326A1", "key": {"[1]": {"molecular_target": "A244-rgp120 grown in GnTI- cells (HIV-1 isolate A244)", "assay": "ELISA, mAb titrated on gp120, absorbance 492 nm; curve 495 (A244 gp120 GNTI-)"}, "[2]": {"molecular_target": "1209 V1/V2/V3/C3 scaffold grown in kifunensine", "assay": "ELISA, mAb titrated on scaffold, absorbance 492 nm; curve 509 (1209 kif)"}, "[3]": {"molecular_target": "A244-rgp120 grown in kifunensine treated cells (HIV-1 isolate A244)", "assay": "ELISA, mAb titrated on gp120, absorbance 492 nm; curve 496 (A244 gp120 kif)"}}, "data": [{"substance": "PGT128 broadly neutralizing monoclonal antibody", "values": [{"measurement": "EC50", "setting": "[1]", "value": "< 0.01", "unit": "µg/mL"}, {"measurement": "EC50", "setting": "[2]", "value": 0.09, "unit": "µg/mL"}, {"measurement": "EC50", "setting": "[3]", "value": "< 0.01", "unit": "µg/mL"}]}]}
